# From patent publication US20230357447A1 (JANUX THERAPEUTICS, published 2023)
# Ends that are not written are not given here.
# B1: Peptide-6 (peptide)
# peptide: VNCMRVHRTLTWCV
# modifications: cysteine pairing not given here; also: biotinylated when captured on plate, site not given here
# notes: biotinylated when captured on the plate
# B2: Peptide-45 (peptide)
# peptide: MDWCPRFMWDECFN
# modifications: cysteine pairing not given here; also: biotinylated, site not given here
# notes: Synthetic biotinylated peptide loaded on streptavidin biosensors
# B3: Peptide-44 (peptide)
# peptide: MDWCPRDMWSVCFS
# modifications: cysteine pairing not given here; also: biotinylated, site not given here
# notes: as for B2
# B4: Peptide-42 (peptide)
# peptide: MDWCPRDMWDECFA
# modifications: cysteine pairing not given here; also: biotinylated, site not given here
# notes: as for B2
# B5: Peptide-43 (peptide)
# peptide: MDWCPRDMWSECFA
# modifications: cysteine pairing not given here; also: biotinylated, site not given here
# notes: as for B2
# B6: Peptide-46 (peptide)
# peptide: MDWCPRHMWNYCFA
# modifications: cysteine pairing not given here; also: biotinylated, site not given here
# notes: as for B2
# B7: Peptide-48 (peptide)
# peptide: MDWCPRYLWHVCFA
# modifications: cysteine pairing not given here; also: biotinylated, site not given here
# notes: as for B2
# B8: Peptide-7 (peptide)
# peptide: FCTPREWSFLNFVC
# modifications: cysteine pairing not given here; also: biotinylated when captured on plate, site not given here
# notes: as for B1
# B9: Peptide-5 (peptide)
# peptide: DNCYVIWGFEWQCR
# modifications: cysteine pairing not given here; also: biotinylated when captured on plate, site not given here
# notes: as for B1
# B10: Peptide-8 (peptide)
# peptide: CFAYLWIDSWIRVC
# modifications: cysteine pairing not given here; also: biotinylated when captured on plate, site not given here
# notes: as for B1
# B11: Peptide-41 (peptide)
# peptide: MDWCPRDLWVHCFA
# modifications: cysteine pairing not given here; also: biotinylated, site not given here
# notes: as for B2
# Assays:
# [1] = target: T1, anti-CD28 scFv (SEQ ID NO: 9); assay: competition ELISA: peptide titrated against 2 nM anti-CD28 scFv; binding of the scFv to captured biotinylated CD28 antigen is read; table prints 'IC50 nM' but the axis is Log [Peptide, uM]; no fall of the signal
# T1 construct: also called Anti-CD28 scFv (VH-linker 1-VL)
# [2] = target: T2, Anti-CD28 scFv (VH-linker 1-VL) (biotinylated (site not stated)); assay: phage ELISA, captured biotinylated scFv; background signal 0.062
# T2 construct: biotinylated and captured on neutravidin coated plates in the phage ELISA
# [3] = target: T2, Anti-CD28 scFv (VH-linker 1-VL); assay: phage ELISA, scFv wells pre-incubated with soluble CD28 (competitor); background signal 0.062
# [4] = target: T2, Anti-CD28 scFv (VH-linker 1-VL); assay: phage ELISA, captured biotinylated scFv; background signal 0.065
# [5] = target: T2, Anti-CD28 scFv (VH-linker 1-VL); assay: phage ELISA, scFv wells pre-incubated with soluble CD28 (competitor); background signal 0.065
# [6] = target: T2, Anti-CD28 scFv (VH-linker 1-VL); assay: phage ELISA, scFv wells pre-incubated with soluble CD28 (competitor); background signal 0.071
# [7] = target: T3, Ab-12, anti-PD-L1xCD28 non-masked antibody in Vh format; assay: competition ELISA: peptide titrated against 5 nM Ab-12; binding of Ab-12 to captured biotinylated CD28 antigen is read
# T3 construct: also called PDL1xCD28 non-masked (Vh)
# [8] = target: T3, Ab-12, anti-PD-L1xCD28 non-masked …; assay: competition ELISA: peptide titrated against 5 nM Ab-12; binding of Ab-12 to captured biotinylated CD28 antigen is read; table prints 'IC50 nM' but the axis is Log [Peptide, uM]; no fall of the signal
binder,measurement,setting,value
B1,IC50,[1],> 100 nM
MHWCPMDQWSNCFN [Phage-56],Phage binding ELISA CD28 scFv signal,[2],0.515
same,Phage binding ELISA CD28 scFv signal in presence of CD28,[3],0.084
MDWCPRALWNVCFN [Phage-89],Phage binding ELISA CD28 scFv signal,[4],2.6
same,Phage binding ELISA CD28 scFv signal in presence of CD28,[5],0.472
MDWCPRFLWDECFN [Phage-83],Phage binding ELISA CD28 scFv signal,[4],2.63
same,Phage binding ELISA CD28 scFv signal in presence of CD28,[5],0.483
MDWCPRYLWTECFN [Phage-100],Phage binding ELISA CD28 scFv signal,[2],2.56
same,Phage binding ELISA CD28 scFv signal in presence of CD28,[3],0.549
MDWCPRFLWSECFN [Phage-95],Phage binding ELISA CD28 scFv signal,[2],2.57
same,Phage binding ELISA CD28 scFv signal in presence of CD28,[3],0.227
MDWCPIHMWADCFA [Phage-69],Phage binding ELISA CD28 scFv signal,[4],2.46
same,Phage binding ELISA CD28 scFv signal in presence of CD28,[5],0.143
ITWCPSSMWNRCFI [Phage-70],Phage binding ELISA CD28 scFv signal,[4],0.379
same,Phage binding ELISA CD28 scFv signal in presence of CD28,[5],0.11
MDWCPLYLWNECFN [Phage-24],Phage binding ELISA CD28 scFv signal,[4],2.61
same,Phage binding ELISA CD28 scFv signal in presence of CD28,[5],0.247
MDWCPMYLWNECFS [Phage-80],Phage binding ELISA CD28 scFv signal in presence of CD28,[6],0.411
B2,IC50,[7],370 nM
MDWCPRDLWVHCFA [Phage-29],Phage binding ELISA CD28 scFv signal,[2],2.55
same,Phage binding ELISA CD28 scFv signal in presence of CD28,[3],0.179
B3,IC50,[7],940 nM
"YWYCSPSIVRCVLV (cysteine pairing not given here; also: biotinylated, site not given here, biotinylated when captured on the plate) [Peptide-1]",IC50,[1],> 100 nM
"WICDKSGSIMLCRA (cysteine pairing not given here; also: biotinylated, site not given here, biotinylated when captured on the plate) [Peptide-11]",IC50,[8],> 100 nM
"SPCGLFQWMEICEF (cysteine pairing not given here; also: biotinylated, site not given here, biotinylated when captured on the plate) [Peptide-3]",IC50,[1],> 100 nM
B4,IC50,[7],440 nM
B5,IC50,[7],240 nM
MDWCPIDLWHLCFY [Phage-90],Phage binding ELISA CD28 scFv signal,[2],2.59
same,Phage binding ELISA CD28 scFv signal in presence of CD28,[3],0.488
B6,IC50,[7],240 nM
"GQHCATSMWRYCMF (cysteine pairing not given here; also: biotinylated, site not given here, biotinylated when captured on the plate) [Peptide-10]",IC50,[8],> 100 nM
"CFYAEYYDQVYSFC (cysteine pairing not given here; also: biotinylated, site not given here, biotinylated when captured on the plate) [Peptide-18]",IC50,[8],> 100 nM
"DNCHYIWGFEWQCG (cysteine pairing not given here; also: biotinylated, site not given here, biotinylated when captured on the plate) [Peptide-13]",IC50,[8],> 100 nM
"GCFTWSQRTFPFTC (cysteine pairing not given here; also: biotinylated, site not given here, biotinylated when captured on the plate) [Peptide-17]",IC50,[8],> 100 nM
B7,IC50,[7],790 nM
B8,IC50,[1],> 100 nM
"NCQPWYWNMFAFGC (cysteine pairing not given here; also: biotinylated, site not given here, biotinylated when captured on the plate) [Peptide-15]",IC50,[8],> 100 nM
"NCQPWYWNMIAFGC (cysteine pairing not given here; also: biotinylated, site not given here, biotinylated when captured on the plate) [Peptide-16]",IC50,[8],> 100 nM
B9,IC50,[1],> 100 nM
"SFCGLFLDLWICEF (cysteine pairing not given here; also: biotinylated, site not given here, biotinylated when captured on the plate) [Peptide-4]",IC50,[1],> 100 nM
MDWCPINLWDECFS [Phage-52],Phage binding ELISA CD28 scFv signal,[2],1.5
same,Phage binding ELISA CD28 scFv signal in presence of CD28,[3],0.096
MDWCPRDLWSLCFY [Phage-94],Phage binding ELISA CD28 scFv signal,[4],2.57
same,Phage binding ELISA CD28 scFv signal in presence of CD28,[5],0.246
"IDCIMVHMVKPWCF (cysteine pairing not given here; also: biotinylated, site not given here, biotinylated when captured on the plate) [Peptide-14]",IC50,[8],> 100 nM
MAWCPRDKWSECFS [Phage-41],Phage binding ELISA CD28 scFv signal,[2],0.853
same,Phage binding ELISA CD28 scFv signal in presence of CD28,[3],0.147
"LICKSGSILILCAQ (cysteine pairing not given here; also: biotinylated, site not given here, biotinylated when captured on the plate) [Peptide-2]",IC50,[1],> 100 nM
MDWCPSYLWNECFF [Phage-62],Phage binding ELISA CD28 scFv signal,[4],2
same,Phage binding ELISA CD28 scFv signal in presence of CD28,[5],0.133
B10,IC50,[1],> 100 nM
same,IC50,[8],> 100 nM
B11,IC50,[7],150 nM
MDWCPRDMWSVCFS [Phage-32],Phage binding ELISA CD28 scFv signal,[2],2.62
same,Phage binding ELISA CD28 scFv signal in presence of CD28,[3],0.207
